Data reported in patent publication US20230212239A1, “INHIBITORS OF CBL AUTOINHIBITION AND RELATED METHODS” (THE HOSPITAL FOR SICK CHILDREN, priority 2020, published 2023).
“Also recorded” adds a separate entry of the source.

T1: CBL TKBD-LHR-RING (2-436), unphosphorylated (Homo sapiens, UniProt P22681)
T1 construct: GST (N, cleaved yes); made in house; host or cells: E. coli BL-21
T1 sequence (P22681 2-436): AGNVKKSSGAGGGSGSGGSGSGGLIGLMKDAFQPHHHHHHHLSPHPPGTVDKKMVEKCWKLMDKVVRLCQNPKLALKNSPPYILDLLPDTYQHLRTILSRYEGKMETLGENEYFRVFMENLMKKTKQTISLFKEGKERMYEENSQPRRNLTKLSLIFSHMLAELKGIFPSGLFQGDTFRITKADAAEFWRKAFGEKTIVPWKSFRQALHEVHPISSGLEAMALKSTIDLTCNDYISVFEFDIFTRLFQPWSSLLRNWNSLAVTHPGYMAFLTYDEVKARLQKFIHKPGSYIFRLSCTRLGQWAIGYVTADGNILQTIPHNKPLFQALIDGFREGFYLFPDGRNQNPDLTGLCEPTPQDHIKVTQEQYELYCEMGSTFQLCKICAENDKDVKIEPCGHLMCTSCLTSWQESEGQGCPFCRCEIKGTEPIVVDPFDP

T2: CBL TKBD-LHR-RING (Homo sapiens, UniProt P22681)
T2 construct: GST (N, cleaved yes); made in house; host or cells: E. coli BL-21
T2 sequence (P22681 2-436): T1 sequence (P22681 2-436)

T3: phosphorylated CBL (pCBL) (Homo sapiens, UniProt P22681)
T3 construct: GST (N, cleaved yes); made in house
T3 sequence (P22681 2-436): T1 sequence (P22681 2-436)

B1: Trx-His(6)-Δlinker-hSLAP2 (human SLAP2 29-261) (other)
chain: EAERSKATAVALGSFPAGGPAELSLRLGEPLTIVSEDGDWWTVLSEVSGREYNIPSVHVAKVSHGWLYEGLSREKAEELLLLPGNPGGAFLIRESQTRRGSYSLSVRLSRPASWDRIRHYRIHCLDNGWLYISPRLTFPSLQALVDHYSELADDICCLLKEPCVLQRAGPLPGKDIPLPVTVQRTPLNWKELDSSLLFSEAATGEESLLSEGLRESLSFYISLNDEAVSLDDA
notes: also called Trx-His-SLAP2; SLAP2 WT; not shown: N-terminal thioredoxin (Trx)-His(6)-TEV-site tag and linker of the modified pET32a (Δlinker version)
B2: pSLAP2: tyrosine phosphorylated SLAP2 expressed in TKB1 cells (protein, UniProt Q9H6Q3 2-261, looked up)
Src-like-adapter 2: GSLPSRRKSLPSPSLSSSVQGQGPVTMEAERSKATAVALGSFPAGGPAELSLRLGEPLTIVSEDGDWWTVLSEVSGREYNIPSVHVAKVSHGWLYEGLSREKAEELLLLPGNPGGAFLIRESQTRRGSYSLSVRLSRPASWDRIRHYRIHCLDNGWLYISPRLTFPSLQALVDHYSELADDICCLLKEPCVLQRAGPLPGKDIPLPVTVQRTPLNWKELDSSLLFSEAATGEESLLSEGLRESLSFYISLNDEAVSLDDA
modifications: tyrosine phosphorylated
notes: tyrosine phosphorylated SLAP2 expressed in TKB1 cells

What was measured:
Type in all cases: biochemical
[1] = molecular target: T1, CBL TKBD-LHR-RING (2-436), unphosphorylated; test: In vitro ubiquitination assay, anti-ubiquitin immunoblot; conditions: added to unphosphorylated CBL; 20 pmol CBL, 60 pmol SLAP2/pSLAP2
Description: (§1) Given that binding of SLAP2 and the LHR-RING would be mutually exclusive (FIG. 8C), we reasoned that binding of SLAP2 to CBL could displace the LHR-RING, thereby promoting the catalytically competent conformation. To test this hypothesis, an in vitro ubiquitination assay in which E3 ligase activity is detected by a smear at high molecular weight on an anti-ubiquitin (Ub) immunoblot was employed. […] To further compare and quantify CBL ubiquitin ligase activity, a chemiluminescence based assay which measures the total amount of polyubiquitylated products formed in an in vitro reaction was used. In this assay, production of polyubiquitylated proteins increased upon addition of SLAP2 or pSLAP2 to CBL, compared to CBL alone (FIG. 9C and FIG. 10A).
In vitro ubiquitination reactions were prepared with 20 pmol of CBL or pCBL and 60 pmol of hSLAP2 or phosphorylated hSLAP2 (pSLAP2) for both WT and mutants. Reagents were thawed and reactions prepared on ice. CBL and SLAP2 were mixed in PBS (with 5 mM βME, 5 mM caproic acid, 0.5 mM PMSF, and 0.5 mM Na3VO4) at rt for 5-10 min before addition of master mix (42 pmol E1 (UBE1, Boston Biochem or Ubiquitin-Proteasome Biotechnologies), 0.1 µmol E2 (UbcH5b/UBE2D2, Boston Biochem #E2-622), […], and 11.6 µmol ubiquitin (Boston Biochem #U-100H) in reaction buffer (0.2 M Tris pH 7.5, 10 mM MgCl2, 2 mM DTT). Reactions were incubated at 30° C. shaking at 500-700 rpm for 60-110 minutes and terminated by addition of SDS 2X loading buffer and boiling for 5-10 minutes. Equal volumes of each reaction were loaded on 12.5% SDS-PAGE gel, transferred to PVDF membrane, and immunoblotted for ubiquitin as per standard protocols (anti-ubiquitin antibody P4G7, BioLegend #838701, 1:1000; anti-mouse IgG HRP-linked antibody, Cell Signaling Technology #7076, 1:10000; Western Lightning Plus ECL, Perkin Elmer).

CBL TKBD-LHR-RING = molecular target: T2, CBL TKBD-LHR-RING; test: Chemiluminescence based E3LITE assay of total polyubiquitylated products; conditions: added to CBL, compared to CBL alone
Description: as §1
Ubiquitination reactions were set up as above (25 µL total volume) in triplicate and diluted with reaction buffer after completion (1:40 for pCBL, 1:15 for all other reactions). […] Wells were washed four times with PBS-T and 25 µL of prepared Immobilon Western Chemiluminescent HRP Substrate (Millipore #P90719) added to each well immediately prior to the plate being read on a Synergy Neo2 Plate Reader (BioTek Instruments). […] Standard deviation of the reaction averages was calculated and used as a measure of error. Each reaction set was analyzed at least twice with fresh protein purifications.

[2] = molecular target: T3, phosphorylated CBL (pCBL); test: In vitro ubiquitination assay, anti-ubiquitin immunoblot, phosphorylated CBL; conditions: added to phosphorylated CBL
Description: as §1
In vitro ubiquitination reactions were prepared with 20 pmol of CBL or pCBL and 60 pmol of hSLAP2 or phosphorylated hSLAP2 (pSLAP2) for both WT and mutants. Reagents were thawed and reactions prepared on ice. […]

| Molecule | CBL ubiquitination activity (anti-Ub immunoblot) [1] | production of polyubiquitylated proteins / CBL ligase activity (CBL TKBD-LHR-RING) | ubiquitination activity of active pCBL [2] |
| --- | --- | --- | --- |
| B1 | stimulated CBL ubiquitination activity | increased | Neither addition of SLAP2 nor pSLAP2 to active pCBL appeared to further enhance or diminish ubiquitination activity |
| B2 | stimulated CBL ubiquitination activity; also recorded: promote CBL ubiquitination activity to a greater extent than the addition of SLAP2 | increased; also recorded: stimulated CBL ligase activity to a greater extent than SLAP2 | Neither addition of SLAP2 nor pSLAP2 to active pCBL appeared to further enhance or diminish ubiquitination activity |
